Target: histones
Test: ELISA

Kd: 6.6 nM
B1: murine IMMU-H4 antibody (parental murine anti-histone H4 antibody) (antibody, V domains shown)
VH: QVQLQQSGAELVRPGASVKLSCTASGFNIKDDYLHWVKQRPEQGLEWIGWIDPENGDTEYASKFQGKATITADTSSNTAYLQLSSLTSEDTAVYYCSSPLVHLRTFAYWGQGTLVTVS
VL: DIQLTQSPASLAVSLGQRATISCRASESVDSYDNSLHWFQQKPGQPPKLLIYLASNLESGVPARFSGSGSRTDFTLTIDPVEADDAATYYCQQNNEDPWTFGGGTKLEIKR

Reference: US20160130333A1
